# Laboratory results as given in patent US20200317768A1 (published 2020).
# T1: human FcγRIIb extracellular domain, His-tagged (human, UniProt P31994 43-217)
# T1 construct: also called FcgRIIb (human); not shown: C-terminal His-tag
# T1 sequence: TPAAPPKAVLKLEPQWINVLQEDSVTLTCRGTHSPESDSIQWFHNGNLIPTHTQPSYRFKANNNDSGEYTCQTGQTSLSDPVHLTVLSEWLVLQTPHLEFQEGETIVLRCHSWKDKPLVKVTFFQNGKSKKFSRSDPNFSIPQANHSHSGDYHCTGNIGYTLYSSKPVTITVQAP
# T2: cynomolgus monkey FcγRIIa2 extracellular domain, His-tagged (cynomolgus monkey)
# T2 construct: also called cyno FcγRIIa2; FcgRIIa2; not shown: C-terminal His-tag
# T2 chain: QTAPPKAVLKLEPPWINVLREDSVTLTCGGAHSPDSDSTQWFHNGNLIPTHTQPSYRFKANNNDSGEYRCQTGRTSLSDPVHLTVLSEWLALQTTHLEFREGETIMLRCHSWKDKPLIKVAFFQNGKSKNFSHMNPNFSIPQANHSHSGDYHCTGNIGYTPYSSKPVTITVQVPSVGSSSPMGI
# T3: cynomolgus monkey FcγRIIIaS extracellular domain, His-tagged (cynomolgus monkey, UniProt Q8SPW2 21-206 at identity 1.00))
# T3 construct: also called cyno FcγRIIIaS; FcgRIIIaS; not shown: C-terminal His-tag
# T3 chain: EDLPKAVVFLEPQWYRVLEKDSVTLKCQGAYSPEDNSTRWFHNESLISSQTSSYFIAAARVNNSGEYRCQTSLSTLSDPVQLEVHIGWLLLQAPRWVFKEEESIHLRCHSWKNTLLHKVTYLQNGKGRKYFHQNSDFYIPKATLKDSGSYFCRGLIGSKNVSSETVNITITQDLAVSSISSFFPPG
# T4: cynomolgus monkey FcγRIIa3 extracellular domain, His-tagged (cynomolgus monkey)
# T4 construct: also called cyno FcγRIIa3; FcgRIIa3; not shown: C-terminal His-tag
# T4 chain: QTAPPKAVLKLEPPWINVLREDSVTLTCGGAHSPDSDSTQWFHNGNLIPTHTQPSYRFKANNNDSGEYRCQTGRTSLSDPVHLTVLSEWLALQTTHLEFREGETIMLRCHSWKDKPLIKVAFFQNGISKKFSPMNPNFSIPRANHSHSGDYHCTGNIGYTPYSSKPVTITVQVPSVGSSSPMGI
# T5: cynomolgus monkey FcγRIIb extracellular domain, His-tagged (cynomolgus monkey)
# T5 construct: also called cyno FcγRIIb; cynoFcγRIIb; not shown: C-terminal His-tag
# T5 chain: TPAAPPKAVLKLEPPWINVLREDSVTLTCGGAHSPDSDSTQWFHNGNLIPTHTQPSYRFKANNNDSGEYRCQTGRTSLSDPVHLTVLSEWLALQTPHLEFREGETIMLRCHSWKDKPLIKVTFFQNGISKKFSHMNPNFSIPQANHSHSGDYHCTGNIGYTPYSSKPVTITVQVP
# T6: human FcγRIIaH extracellular domain, His-tagged (human, UniProt P12318 34-217)
# T6 construct: also called human FcγRIIa (type H); FcgRIIaH; not shown: C-terminal His-tag
# T6 sequence: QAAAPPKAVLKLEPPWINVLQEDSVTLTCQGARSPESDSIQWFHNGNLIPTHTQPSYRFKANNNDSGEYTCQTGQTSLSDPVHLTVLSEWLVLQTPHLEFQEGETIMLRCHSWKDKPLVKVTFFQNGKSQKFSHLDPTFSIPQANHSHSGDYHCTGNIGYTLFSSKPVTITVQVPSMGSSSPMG
# T7: human FcγRIIaR extracellular domain, His-tagged (human, UniProt P12318 34-217)
# T7 construct: also called human FcγRIIa (type R); FcgRIIaR; not shown: C-terminal His-tag
# T7 chain: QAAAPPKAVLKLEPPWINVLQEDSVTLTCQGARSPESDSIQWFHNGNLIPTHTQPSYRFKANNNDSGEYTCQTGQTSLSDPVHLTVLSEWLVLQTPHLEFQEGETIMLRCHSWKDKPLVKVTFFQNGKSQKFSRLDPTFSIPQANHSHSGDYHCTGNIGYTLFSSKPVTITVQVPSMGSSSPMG
# T8: cynomolgus monkey FcγRIIa1 extracellular domain, His-tagged (cynomolgus monkey)
# T8 construct: also called cyno FcγRIIa1; FcgRIIa1; not shown: C-terminal His-tag
# T8 chain: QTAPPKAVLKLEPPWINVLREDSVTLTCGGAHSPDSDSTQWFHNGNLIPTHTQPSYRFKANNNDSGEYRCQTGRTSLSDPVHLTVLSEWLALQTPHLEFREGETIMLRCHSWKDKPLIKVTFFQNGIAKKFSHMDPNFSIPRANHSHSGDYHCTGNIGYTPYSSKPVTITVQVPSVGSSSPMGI
# B1: M103205H795-MY449 / M103202L889-SK1 (antibody, human IgG1, kappa)
# heavy: QVTLKESGPVLVKPTETLTLTCTVSGIDLSHDDISWVRQAPGKGLEWVGIISYAGSTYYASWAKGRLTISKDTSKNQVVLTMTNMDPVDTATYYCARGVPAYSHGGDLWGQGTLVTVSSASTKGPSVFPLAPSSKSTSGGTAALGCLVKDYFPEPVTVSWNSGALTSGVHTFPAVLQSSGLYSLSSVVTVPSSSLGTQTYICNVNHKPSNTKVDKKVEPKSCDKTHTCPPCPALELLTGPSVFLFPPKPKDTLMISRTPEVTCVVVDVSDEDPEVKFNWYVDGVEVHNAKTKPREEQYNSTYRVVSVLTVLHQDWLNGKEYKCKVSNKALPKPIEKTISKAKGQPREPQVYTLPPSREEMTKNQVSLTCLVKGFYPSDIAVEWESNGQPENNYKTTPPVLDSDGSFFLYSKLTVDKSRWQQGNVFSCSVMHEALHNHYTQKSLSLSP
# light: DIVMTQSPATLSLSPGERATLSCTSSQSVYHANWLSWFQQKPGQPPKLLIYWASTLAYGVPSRFSGSGSGTDFTLTISSLQPEDAATYYCAGGYGGGRYAFGQGTKVEIKRTVAAPSVFIFPPSDEQLKSGTASVVCLLNNFYPREAKVQWKVDNALQSGNSQESVTEQDSKDSTYSLSSTLTLSKADYEKHKVYACEVTHQGLSSPVTKSFNRGEC
# B2: M103205H795-MY450 / M103202L889-SK1 (antibody, human IgG1, kappa)
# heavy: QVTLKESGPVLVKPTETLTLTCTVSGIDLSHDDISWVRQAPGKGLEWVGIISYAGSTYYASWAKGRLTISKDTSKNQVVLTMTNMDPVDTATYYCARGVPAYSHGGDLWGQGTLVTVSSASTKGPSVFPLAPSSKSTSGGTAALGCLVKDYFPEPVTVSWNSGALTSGVHTFPAVLQSSGLYSLSSVVTVPSSSLGTQTYICNVNHKPSNTKVDKKVEPKSCDKTHTCPPCPAMELLTGPSVFLFPPKPKDTLMISRTPEVTCVVVDVSDEDPEVKFNWYVDGVEVHNAKTKPREEQYNSTYRVVSVLTVLHQDWLNGKEYKCKVSNKALPKPIEKTISKAKGQPREPQVYTLPPSREEMTKNQVSLTCLVKGFYPSDIAVEWESNGQPENNYKTTPPVLDSDGSFFLYSKLTVDKSRWQQGNVFSCSVMHEALHNHYTQKSLSLSP
# light: DIVMTQSPATLSLSPGERATLSCTSSQSVYHANWLSWFQQKPGQPPKLLIYWASTLAYGVPSRFSGSGSGTDFTLTISSLQPEDAATYYCAGGYGGGRYAFGQGTKVEIKRTVAAPSVFIFPPSDEQLKSGTASVVCLLNNFYPREAKVQWKVDNALQSGNSQESVTEQDSKDSTYSLSSTLTLSKADYEKHKVYACEVTHQGLSSPVTKSFNRGEC
# notes: substitution positions are EU numbers
# B3: M103205H795-MY451 / M103202L889-SK1 (antibody, human IgG1, kappa)
# heavy: QVTLKESGPVLVKPTETLTLTCTVSGIDLSHDDISWVRQAPGKGLEWVGIISYAGSTYYASWAKGRLTISKDTSKNQVVLTMTNMDPVDTATYYCARGVPAYSHGGDLWGQGTLVTVSSASTKGPSVFPLAPSSKSTSGGTAALGCLVKDYFPEPVTVSWNSGALTSGVHTFPAVLQSSGLYSLSSVVTVPSSSLGTQTYICNVNHKPSNTKVDKKVEPKSCDKTHTCPPCPANELLTGPSVFLFPPKPKDTLMISRTPEVTCVVVDVSDEDPEVKFNWYVDGVEVHNAKTKPREEQYNSTYRVVSVLTVLHQDWLNGKEYKCKVSNKALPKPIEKTISKAKGQPREPQVYTLPPSREEMTKNQVSLTCLVKGFYPSDIAVEWESNGQPENNYKTTPPVLDSDGSFFLYSKLTVDKSRWQQGNVFSCSVMHEALHNHYTQKSLSLSP
# light: DIVMTQSPATLSLSPGERATLSCTSSQSVYHANWLSWFQQKPGQPPKLLIYWASTLAYGVPSRFSGSGSGTDFTLTISSLQPEDAATYYCAGGYGGGRYAFGQGTKVEIKRTVAAPSVFIFPPSDEQLKSGTASVVCLLNNFYPREAKVQWKVDNALQSGNSQESVTEQDSKDSTYSLSSTLTLSKADYEKHKVYACEVTHQGLSSPVTKSFNRGEC
# notes: as for B2
# What was measured:
# Assay in all cases: SPR (BIACORE), 25 C, antibody captured, FcgR as analyte; KD of SG1 divided by KD of variant;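 further: relative to parent M103205H795-SG1 carrying the SG1 human heavy chain constant region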
# [1] = molecular target: T1, human FcγRIIb extracellular domain, …
# Method: (§1) The kinetic analysis of interactions between these antibodies and FcγR was carried out using BIACORE® T200 or BIACORE® 4000 (GE Healthcare). HBS-EP+ (GE Healthcare) was used as the running buffer, and the measurement temperature was set to 25° C. A chip produced by immobilizing Protein A. Protein A/G or mouse anti-human IgG kappa light chain (BD Biosciences) onto a Series S Sensor Chip CM4 or CM5 (GE Healthcare) by the amine-coupling method was used. […] After the measurement, the antibody captured on the chip was washed off by allowing reaction with 10 mM glycine-HCl, pH1.5 and 25 mM NaOH so that the chip was regenerated and used repeatedly. The sensorgrams obtained as measurement results were analyzed by the 1:1 Langmuir binding model using the BIACORE® Evaluation Software to calculate the binding rate constant ka (L/mol/s) and dissociation rate constant kd (l/s), and the dissociation constant KD (mol/L) was calculated from these values. […] Regarding such interactions, KD values were calculated using the following 1:1 binding model described in BIACORE® T100 Software Handbook BR1006-48 Edition AE.
# [2] = molecular target: T2, cynomolgus monkey FcγRIIa2 …
# Method: as §1
# [3] = molecular target: T3, cynomolgus monkey FcγRIIIaS …
# Method: as §1
# [4] = molecular target: T4, cynomolgus monkey FcγRIIa3 …
# Method: as §1
# [5] = molecular target: T5, cynomolgus monkey FcγRIIb extracellular …
# Method: as §1
# [6] = molecular target: T9, human FcγRIIIaV extracellular domain, His-tagged (human, UniProt P08637 17-208)
# T9 construct: also called human FcγRIIIa (V158); FcgRIIIaV; not shown: C-terminal His-tag
# Method: as §1
# [7] = molecular target: T6, human FcγRIIaH extracellular domain, …
# Method: as §1
# [8] = molecular target: T7, human FcγRIIaR extracellular domain, …
# Method: as §1
# [9] = molecular target: T8, cynomolgus monkey FcγRIIa1 …
# Method: as §1
# T9 sequence (P08637 17-208 F176V): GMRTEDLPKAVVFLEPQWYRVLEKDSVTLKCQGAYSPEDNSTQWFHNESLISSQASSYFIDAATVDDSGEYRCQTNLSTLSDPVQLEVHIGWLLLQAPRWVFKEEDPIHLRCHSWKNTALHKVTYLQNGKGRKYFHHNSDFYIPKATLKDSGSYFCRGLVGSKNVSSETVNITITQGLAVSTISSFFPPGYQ
Binder,KD fold (SG1 = 1) [1] [fold],KD fold (SG1 = 1) [2] [fold],KD fold (SG1 = 1) [3] [fold],KD fold (SG1 = 1) [4] [fold],KD fold (SG1 = 1) [5] [fold],KD fold (SG1 = 1) [6] [fold],KD fold (SG1 = 1) [7] [fold],KD fold (SG1 = 1) [8] [fold],KD fold (SG1 = 1) [9] [fold]
B1,15.9,5.4,0.4,11.3,7.8,0.3,7,14.9,3.7
B2,9.3,4.6,0.3,7.7,6.4,0.3,5.8,9.2,2.3
B3,1.5,1.2,0.1,1.5,1.8,0.1,1.7,1.7,0.9
